The values below come from the RNAGym collection of RNA variant scans (doi:10.1101/gr.219683.116).

Sequences and labels used below:
B1: mRNA-splicing (parent)
chain: AGUUGCUGCUGGGAGCUCCAGCACAGUGAAAUGGACAGAAGGGCAGAGCAA

In the series the parent is B1. As to the kind of experiment: exon inclusion enrichment index; higher = more inclusion; WT1 exon 5 minigene, HEK293.
With AGUUGAAGAAGGGAGCUCCAGCACAGUGAAUCGGACAGAAGGGCAGAGCAA [C6A U7A C9A U10A A31U U32C], the “exon inclusion enrichment index” value amounted to 1.09.
AGUUGAAGAAGGGAGCUCCAGCACAGUGAAUGGGACAGAAGGGCAGAGCAA [C6A U7A C9A U10A A31U U32G]: the “exon inclusion enrichment index” value was found to be 0.311.
AGUUGAAGAAGGGAGCUCCAGCACAGUGAAUAGGACAGAAGGGCAGAGCAA [C6A U7A C9A U10A A31U U32A]: the “exon inclusion enrichment index” value is 0.0674.
Take AGUUGAAGAAGGGAGCUCCAGCGCAGUGAAAUGGACAGAAGGGCAGAGCAA [C6A U7A C9A U10A A23G]: the “exon inclusion enrichment index” value was determined as 1.32.
As to AGUUGAAGAAGGGAGCUCCAGCUCAGUGAAAUGGACAGAAGGGCAGAGCAA [C6A U7A C9A U10A A23U], the “exon inclusion enrichment index” value is 0.394.
Take AGUUGAAGAAGGGAGCUCCAGCCCAGUGAAAUGGACAGAAGGGCAGAGCAA [C6A U7A C9A U10A A23C]: the “exon inclusion enrichment index” value worked out at 0.443.
Regarding AGUUGAUUAAGGGAGCUCCAGCACAGUGAAAUGGACAGAAGGGCAGAGCAA [C6A G8U C9A U10A], the “exon inclusion enrichment index” value came to 0.023.
The result for AGUUGAUUACGGGAGCUCCAGCACAGUGAAAUGGACAGAAGGGCAGAGCAA [C6A G8U C9A U10C] reads 0.728.
For AGUUGAAGAAGGGAGCUCCAGCACAGUGAAAUGGACAGAAGGGCAGAGCAA [C6A U7A C9A U10A], the “exon inclusion enrichment index” value came out at 0.801.
AGUUGAAGAAGGGAGCUCCAGCACGAUGAAAUGGACAGAAGGGCAGAGCAA [C6A U7A C9A U10A A25G G26A]: the “exon inclusion enrichment index” value was 2.29.
With AGUUGAAGAAGGGAGCUCCAGCACGCUGAAAUGGACAGAAGGGCAGAGCAA [C6A U7A C9A U10A A25G G26C], the “exon inclusion enrichment index” value came out at 2.3.
In the case of AGUUGAAGAAGGGAGCUCCAGCACGUUGAAAUGGACAGAAGGGCAGAGCAA [C6A U7A C9A U10A A25G G26U], the “exon inclusion enrichment index” value turned out to be 1.43.
Take AGUUGAAGAAGGGAGCUCCAGCUUAGUGAAAUGGACAGAAGGGCAGAGCAA [C6A U7A C9A U10A A23U C24U]: the “exon inclusion enrichment index” value was determined as 0.0381.
Turning to AGUUGAAGAAGGGAGCUCCAGCUAAGUGAAAUGGACAGAAGGGCAGAGCAA [C6A U7A C9A U10A A23U C24A], the “exon inclusion enrichment index” value worked out at 0.207.
As to AGUUGAAGAAGGGAGCUCCAGCUGAGUGAAAUGGACAGAAGGGCAGAGCAA [C6A U7A C9A U10A A23U C24G], the “exon inclusion enrichment index” value stood at 0.918.
In the case of AGUUGAAGAUUGGAGCUCCAGCACAGUGAAAUGGACAGAAGGGCAGAGCAA [C6A U7A C9A G11U], the “exon inclusion enrichment index” value came out at 2.86.
The result for AGUUGAAGAUCGGAGCUCCAGCACAGUGAAAUGGACAGAAGGGCAGAGCAA [C6A U7A C9A G11C] reads 3.26; that for AGUUGAAGAUAGGAGCUCCAGCACAGUGAAAUGGACAGAAGGGCAGAGCAA [C6A U7A C9A G11A], 0.721; that for AGUUGAAGAAGGGGCCUCCAGCACAGUGAAAUGGACAGAAGGGCAGAGCAA [C6A U7A C9A U10A A14G G15C], 0.529.
As for AGUUGAAGAAGGGGACUCCAGCACAGUGAAAUGGACAGAAGGGCAGAGCAA [C6A U7A C9A U10A A14G G15A], the figure is 0.841; as for AGUUGAAGAAGGGGUCUCCAGCACAGUGAAAUGGACAGAAGGGCAGAGCAA [C6A U7A C9A U10A A14G G15U], 0.274; as for AGUUGAAGAAGGGAGCUCCAGCACAGUGAAAUGGGUAGAAGGGCAGAGCAA [C6A U7A C9A U10A A35G C36U], 0.00209.
On to AGUUGAAGAAGGGAGCUCCAGCACAGUGAAAUGGGGAGAAGGGCAGAGCAA [C6A U7A C9A U10A A35G C36G], for which the “exon inclusion enrichment index” value came to 0.0241.
The result for AGUUGAAGAAGGGAGCUCCAGCACAGUGAAAUGGGAAGAAGGGCAGAGCAA [C6A U7A C9A U10A A35G C36A] reads 0.281; that for AGUUGAAGAAGGGAGCUCCAGCACAGUGACCUGGACAGAAGGGCAGAGCAA [C6A U7A C9A U10A A30C A31C], 1.38; that for AGUUGAAGAAGGGAGCUCCAGCACAGUGACUUGGACAGAAGGGCAGAGCAA [C6A U7A C9A U10A A30C A31U], 0.986.
In the case of AGUUGAAGAAGGGAGCUCCAGCACAGUGACGUGGACAGAAGGGCAGAGCAA [C6A U7A C9A U10A A30C A31G], the “exon inclusion enrichment index” value is 1.45.
AGUUGAAGAAGGGAGCUCCAGCACCGUGAAAUGGACAGAAGGGCAGAGCAA [C6A U7A C9A U10A A25C]: the “exon inclusion enrichment index” value came out at 2.61.
On to AGUUGAAGAAGGGAGCUCCAGCACUGUGAAAUGGACAGAAGGGCAGAGCAA [C6A U7A C9A U10A A25U], for which the “exon inclusion enrichment index” value came out at 1.04.
As to AGUUGAAGAAGGGAGCUCCAGCACGGUGAAAUGGACAGAAGGGCAGAGCAA [C6A U7A C9A U10A A25G], the “exon inclusion enrichment index” value is 1.94.
As for AGUUGAAGCUGGGAGCUCCAGCACAGUGAAAUGGACAGAAGGGCAGAGCAA [C6A U7A], the “exon inclusion enrichment index” value was determined as 0.261.
As for AGUUGAAGAAGGGAGCUCCCUCACAGUGAAAUGGACAGAAGGGCAGAGCAA [C6A U7A C9A U10A A20C G21U], the figure is 0.286; as for AGUUGAAGAAGGGAGCUCCCCCACAGUGAAAUGGACAGAAGGGCAGAGCAA [C6A U7A C9A U10A A20C G21C], 0.209.
Take AGUUGAAGAAGGGAGCUCCCACACAGUGAAAUGGACAGAAGGGCAGAGCAA [C6A U7A C9A U10A A20C G21A]: the “exon inclusion enrichment index” value stood at 0.223.
Consider AGUUGAAGAAGGGAGCUCCAGCACAGUGAACCGGACAGAAGGGCAGAGCAA [C6A U7A C9A U10A A31C U32C], for which the “exon inclusion enrichment index” value turned out to be 1.71.
On to AGUUGAAGAAGGGAGCUCCAGCACAGUGAACAGGACAGAAGGGCAGAGCAA [C6A U7A C9A U10A A31C U32A], for which the “exon inclusion enrichment index” value was determined as 0.428.
Turning to AGUUGAAGAAGGGAGCUCCAGCACAGUGAACGGGACAGAAGGGCAGAGCAA [C6A U7A C9A U10A A31C U32G], the “exon inclusion enrichment index” value stood at 1.02.
The result for AGUUGAAGAAGGGAGCUCCAGCACAGUGAACUGGACAGAAGGGCAGAGCAA [C6A U7A C9A U10A A31C] reads 0.898.
As for AGUUGAAGAAGGGAGCUCCAGCACAGUGAAUUGGACAGAAGGGCAGAGCAA [C6A U7A C9A U10A A31U], the “exon inclusion enrichment index” value amounted to 0.592.
As for AGUUGAAGAAGGGAGCUCCAGCACAGUGAAGUGGACAGAAGGGCAGAGCAA [C6A U7A C9A U10A A31G], the figure is 1.04.
As to AGUUGAAGAAGGGAGCUCCUACACAGUGAAAUGGACAGAAGGGCAGAGCAA [C6A U7A C9A U10A A20U G21A], the “exon inclusion enrichment index” value stood at 0.432.
Consider AGUUGAAGAAGGGAGCUCCUCCACAGUGAAAUGGACAGAAGGGCAGAGCAA [C6A U7A C9A U10A A20U G21C], for which the “exon inclusion enrichment index” value was 0.712.
In the case of AGUUGAAGAAGGGAGCUCCUUCACAGUGAAAUGGACAGAAGGGCAGAGCAA [C6A U7A C9A U10A A20U G21U], the “exon inclusion enrichment index” value turned out to be 0.376.
As for AGUUGAAGAUGGGAGCUCCAGCACAGUGAAAUGGACAGAAGGGCAGAGCAA [C6A U7A C9A], the figure is 1.65; as for AGUUGAAGAAGGGAGCUCCAGCACAGUGAUAUGGACAGAAGGGCAGAGCAA [C6A U7A C9A U10A A30U], 0.433.
Consider AGUUGAAGAAGGGAGCUCCAGCACAGUGAGAUGGACAGAAGGGCAGAGCAA [C6A U7A C9A U10A A30G], for which the “exon inclusion enrichment index” value stood at 0.658.
For the variant AGUUGAAGAAGGGAGCUCCAGCACAGUGACAUGGACAGAAGGGCAGAGCAA [C6A U7A C9A U10A A30C], the “exon inclusion enrichment index” value is 0.809.
Turning to AGUUGAAGAAGGGAGCUCCAGCACAGUGUUAUGGACAGAAGGGCAGAGCAA [C6A U7A C9A U10A A29U A30U], the “exon inclusion enrichment index” value is 0.198.
As for AGUUGAAGAAGGGAGCUCCAGCACAGUGUCAUGGACAGAAGGGCAGAGCAA [C6A U7A C9A U10A A29U A30C], the figure is 0.665.
On to AGUUGAAGAAGGGAGCUCCAGCACAGUGUGAUGGACAGAAGGGCAGAGCAA [C6A U7A C9A U10A A29U A30G], for which the “exon inclusion enrichment index” value stood at 0.739.
The result for AGUUGAUCUCGGGAGCUCCAGCACAGUGAAAUGGACAGAAGGGCAGAGCAA [C6A G8C C9U U10C] reads 1.43.
